# Laboratory results taken from patent publication US20100129383A1 (GOVERNORS OF THE UNIVERSITY OF ALBERTA, published 2010).
# Target: T1, DEC-205 receptor on DC 2.4 cells (mouse) (mouse, UniProt Q60767 28-1723)
# T1 construct: whole, on cells; also called CD205
# Assay: competition cell ELISA on DC 2.4 cells; competitor bfFp (WET7) pre-bound
binder,measurement,value
"HB290 mAb (rat anti-mouse DEC-205 monoclonal antibody) (antibody, V domains shown, Full-length rat mAb from the ATCC hybridoma HB290; also called full-length HB290 mAb; NLDC-145) VH: EVKLVESGGGLVQPGGSLRLSCAASGFTFNDFYMNWIRQPPGQAPEWLGVIRNKGNGYTTEVNTSVKGRFTISRDNTQNILYLQMNSLRAEDTAIYYCARGGPYYYSGDDAPYWGQGVMVTVSS VL: DIQMTQSPSFLSTSLGNSITITCHASQNIKGWLAWYQQKSGNAPQLLIYKASSLQSGVPSRFSGSGSGTDYIFTISNLQPEDIATYYCQHYQSFPWTFGGGTKLELK",binding result,binds
